In assay [1] the target is T1, ECF01_3473.
T1 chain: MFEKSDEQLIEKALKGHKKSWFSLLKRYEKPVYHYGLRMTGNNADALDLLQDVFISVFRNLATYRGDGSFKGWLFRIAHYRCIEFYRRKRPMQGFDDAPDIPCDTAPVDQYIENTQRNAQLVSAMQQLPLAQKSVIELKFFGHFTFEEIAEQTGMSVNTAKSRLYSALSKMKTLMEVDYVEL

Assay [2] addresses T2, ECF03_1244.
T2 chain: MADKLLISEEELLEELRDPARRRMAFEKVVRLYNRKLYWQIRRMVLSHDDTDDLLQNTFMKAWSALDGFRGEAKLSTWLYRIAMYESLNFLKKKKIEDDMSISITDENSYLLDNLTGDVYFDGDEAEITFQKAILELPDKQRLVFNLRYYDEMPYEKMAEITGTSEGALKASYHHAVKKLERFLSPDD

The target of assay [3] is T3, ECF30_35.
T3 chain: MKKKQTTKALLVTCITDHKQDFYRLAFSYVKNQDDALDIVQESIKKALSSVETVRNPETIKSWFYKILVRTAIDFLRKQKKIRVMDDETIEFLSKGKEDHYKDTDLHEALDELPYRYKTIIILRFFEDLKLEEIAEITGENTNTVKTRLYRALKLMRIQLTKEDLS

For assay [4], the target named is T4, ECF11_987.
T4 chain: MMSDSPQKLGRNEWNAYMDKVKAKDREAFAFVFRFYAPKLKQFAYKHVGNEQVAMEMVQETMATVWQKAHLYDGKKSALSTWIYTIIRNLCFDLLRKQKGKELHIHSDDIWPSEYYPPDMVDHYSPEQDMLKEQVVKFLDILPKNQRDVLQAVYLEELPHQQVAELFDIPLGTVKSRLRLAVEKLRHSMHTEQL

Assay [5] addresses T5, ECF03_1198.
T5 chain: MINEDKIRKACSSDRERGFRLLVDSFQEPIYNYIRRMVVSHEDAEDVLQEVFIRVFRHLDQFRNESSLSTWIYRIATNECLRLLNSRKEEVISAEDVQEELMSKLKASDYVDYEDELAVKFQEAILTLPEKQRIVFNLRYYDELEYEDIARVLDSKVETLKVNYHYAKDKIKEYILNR

Assay [6] has as its target T6, ECF34_1384.
T6 chain: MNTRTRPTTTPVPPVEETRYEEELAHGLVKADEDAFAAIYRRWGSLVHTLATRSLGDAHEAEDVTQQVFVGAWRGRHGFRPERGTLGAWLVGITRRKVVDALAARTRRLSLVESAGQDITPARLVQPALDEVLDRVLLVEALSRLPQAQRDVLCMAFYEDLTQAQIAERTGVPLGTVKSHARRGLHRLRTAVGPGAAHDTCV

Assay [7] deals with T7, ECF22_4450.
T7 chain: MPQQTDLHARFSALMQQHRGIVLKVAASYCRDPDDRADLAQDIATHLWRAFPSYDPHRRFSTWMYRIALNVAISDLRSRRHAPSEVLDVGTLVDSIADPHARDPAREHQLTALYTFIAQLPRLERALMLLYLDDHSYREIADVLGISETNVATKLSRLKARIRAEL

Assay [8] concerns the target T8, ECF27_4265.
T8 chain: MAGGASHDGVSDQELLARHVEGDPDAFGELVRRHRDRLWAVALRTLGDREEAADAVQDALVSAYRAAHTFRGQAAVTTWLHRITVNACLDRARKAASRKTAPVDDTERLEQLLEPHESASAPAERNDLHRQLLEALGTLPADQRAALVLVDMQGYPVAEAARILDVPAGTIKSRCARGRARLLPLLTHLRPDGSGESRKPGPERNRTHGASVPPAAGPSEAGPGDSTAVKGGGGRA

Assay [9] addresses T9, ECF02_2817.
T9 chain: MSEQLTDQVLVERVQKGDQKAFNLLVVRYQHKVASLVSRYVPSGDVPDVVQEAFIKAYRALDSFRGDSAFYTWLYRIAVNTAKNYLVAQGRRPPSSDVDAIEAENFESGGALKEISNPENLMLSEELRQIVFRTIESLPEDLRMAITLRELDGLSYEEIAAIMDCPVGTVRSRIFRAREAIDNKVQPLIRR

Assay [10] concerns the target ECF26_4464.
Assay [11] addresses T10, ECF12_807.
T10 chain: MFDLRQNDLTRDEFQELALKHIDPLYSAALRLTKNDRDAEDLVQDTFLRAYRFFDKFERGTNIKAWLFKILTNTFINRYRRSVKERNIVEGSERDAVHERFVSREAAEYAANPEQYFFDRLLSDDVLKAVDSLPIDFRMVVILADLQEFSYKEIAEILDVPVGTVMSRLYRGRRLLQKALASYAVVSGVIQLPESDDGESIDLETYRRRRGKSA

Assay [12] concerns the target T11, ECF16_973.
T11 chain: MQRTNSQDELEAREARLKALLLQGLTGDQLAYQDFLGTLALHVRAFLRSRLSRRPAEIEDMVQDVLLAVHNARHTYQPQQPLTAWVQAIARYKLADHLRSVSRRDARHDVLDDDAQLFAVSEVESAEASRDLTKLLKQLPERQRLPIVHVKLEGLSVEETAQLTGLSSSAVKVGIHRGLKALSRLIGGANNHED

Assay [13] addresses T12, ECF02_915.
T12 chain: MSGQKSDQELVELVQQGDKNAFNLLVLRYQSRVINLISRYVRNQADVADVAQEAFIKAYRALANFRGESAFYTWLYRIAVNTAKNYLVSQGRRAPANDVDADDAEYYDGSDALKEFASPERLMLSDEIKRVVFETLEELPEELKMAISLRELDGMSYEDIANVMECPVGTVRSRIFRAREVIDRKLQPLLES

For assay [14], the target named is T13, ECF25_1645.
T13 chain: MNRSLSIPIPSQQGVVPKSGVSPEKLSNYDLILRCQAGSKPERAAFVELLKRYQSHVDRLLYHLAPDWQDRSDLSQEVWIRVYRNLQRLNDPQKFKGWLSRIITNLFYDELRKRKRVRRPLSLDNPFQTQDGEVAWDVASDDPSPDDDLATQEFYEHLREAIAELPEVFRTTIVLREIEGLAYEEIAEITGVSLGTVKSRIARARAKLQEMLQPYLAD

This note sets out measurements from PMC3817407.

B1: AS22_1147 (protein)
chain: MELDDIAVAWRSLEQRLDQHAALAGQVLGDLRSHAARAHLRPLWLSQSAQLLCAIALSGLVAHSWLAFPEQAAAIVGGVLLQIWCVALAASAARQLWLLSQLDFARPLLQTQRALAQLRRWRTRVAPWLGVAFWVLWVAVADAAWRALTGRSLPYAWLLCNLLVGVLGGIGTWLGYRRLQRSGHPWLERLDTVHAGRSVARTETLLEQIARFQRE
For the molecule B1, the fold repression in [1] was found to be 3.03; in assay [2], 3.22; in [3], 2.04; in assay [4], 3.16; in assay [5], 2.82; in [6], 2.09. The fold repression was 35.7 in [7]; 1.86 in assay [8]; 2.38 in [9]; 3.82 in assay [10]; 3.45 in [11]; 2.57 in assay [12]. Moreover, the fold repression in [13] amounted to 3.59; in [14], 2.27.

B2: AS27_1331 (protein)
chain: MSAADKDPDKHSADADPPLTVELLADLQAGLLDDATAARIRSRVRSDPQAQQILRALNRVRRDVAAMGADPAWGPAARPAVVDSISAALRSARPNSSPGAAHAARPHVHPVRMIAGAAGLCAVATAIGVGAVVDAPPPAPSAPTTAQHITVSKPAPVIPLSRPQVLDLLHHTPDYGPPGGPLGDPSRRTSCLSGLGYPASTPVLGAQPIDIDARPAVLLVIPADTPDKLAVFAVAPHCSAADTGLLASTVVPRA
For B2, the fold repression in assay [1] turned out to be 2.69; in assay [2] it was 4.29; in [3], 3.98; in [4], 5.69; in assay [5] it was 3.98; in assay [6], 2.35. Besides, the fold repression in assay [7] turned out to be 5.86; in [8], 5.34; in assay [9], 2.82; in assay [10], 3.61; in [11], 2.07; in [12], 5.57. Also, the results for the fold repression in assay [13] and in assay [14] were 2.72 and 3.12, respectively.

B3: AS25_1645 (protein)
chain: MNESFSQRQTDGDRRRGGDLEMKKNHTSHQHHTDSETPMGHNFEQFQRLSAYFDGEATPAERKEIQHLLDTDPQVKQQYQQLRQLKQALQLLPIPTSISAQYLGQRVLARLRRSQLRTLSLWGSGAIAALFVAGVMGQMPRLNFDRFAKNDPDQQPTAALVETSPQGEEALVVALNRPVLQIPKLATTESP
As to B3, the fold repression in [1] is 7.11; in [2] it was 4.7; in [3], 3.43; in assay [4], 8.87; in [5], 7.37; in assay [6], 7.62. Also, the fold repression in assay [7] came out at 9.86; in assay [8], 24.5; in assay [9] it was 9.88; in [10], 15.3; in assay [11], 9.09; in assay [12], 5.41. Further, the fold repression in assay [13] worked out at 6.91; in [14], 33.7.

B4: AS25_1643_cl43 (protein)
chain: MTTDSNFNDPCRRQFSRDLPQKMARHTNEATGAMDMVKRDRFELLSAYLGGEVTAAERRQVEDWPANDVAVQRLYSRLLKLRQGIRTMPIPTAQQSPETTAEQVFAKVNRRSRLAWKLGGAAVAACVIGAVTNWLPGRQTGIPQLAQQPQEQPTQAVTTPDALPMIALNNPVIEIPKAAVASPTKFIQPQPQLGEIPPDIN
Turning to B4, the fold repression in assay [1] turned out to be 2.75; in [2] it was 1.06; in assay [3] it was 0.929; in [4] it was 2.43; in [5] it was 1.92; in assay [6], 2.43. The fold repression in [7] was determined as 3.35; in assay [8] it was 0.954; in [9] it was 4.05; in [10] it was 6.66; in assay [11], 4.23; in assay [12], 1.22. Besides, the fold repression is 6.67 in assay [13] and 7.28 in [14].

B5: AS22_4450 (protein)
chain: MELDDMKHAWQTLEQRLDQQAAQTGQLLGVVHEETVRSSLRPLWVAQTAQLLCALALAIVSARSWIPHTDQPVAVIGGVLLQAWCMALAISAMVQLQLLTQFNVAGPLLRTQHALARLRRWRTRVAPWLGVAFWVLWIAVADALWRALTGQTLPTDWLVLNLLVGVAGGIGTWLGFRRLQRAQHPWLERIDRAHAGTGVIRAERMLEEIARFQRD
For the molecule B5, the fold repression in assay [1] is 1.32; in assay [2], 1.75; in assay [3] it was 1.54; in assay [4], 1.89; in assay [5], 2.46; in assay [6], 1.66. Moreover, the fold repression amounted to 12.7 in assay [7]; 1.4 in assay [8]; 1.98 in assay [9]; 2.51 in assay [10]; 1.67 in [11]; 1.71 in [12]. Further, the results for the fold repression in assay [13] and in assay [14] were 2.12 and 1.42, respectively.
